The results in this text go back to US20250295772A1 (ABATA THERAPEUTICS, published 2025).

T1: preproinsulin 73-90 peptide complexed with HLA-DRB1*04:01 (human, UniProt P01903 26-254; P01911 30-266)
T1 MHC II alpha: not shown
T1 MHC II beta: not shown
T1 peptide: GAGSLQPLALEGSLQKRG

B1: TCR-D (TCR)
TCR alpha: NSVTQMEGPVTLSEEAFLTINCTYTATGYPSLFWYVQYPGEGLQLLLKATKADDKGSNKGFEATYRKETTSFHLEKGSVQVSDSAVYFCALSEKTSYDKVIFGPGTSLSVIPNIQNPDPAVYQLRDSKSSDKSVCLFTDFDSQTNVSQSKDSDVYITDKTVLDMRSMDFKSNSAVAWSNKSDFACANAFNNSIIPEDTFFPSPESSCDVKLVEKSFETDTNLNFQNLSVIGFRILLLKVAGFNLLMTLRLWSS
TCR beta: NAGVTQTPKFRILKIGQSMTLQCTQDMNHNYMYWYRQDPGMGLKLIYYSVGAGITDKGEVPNGYNVSRSTTEDFPLRLELAAPSQTSVYFCASSYGPGGSEAFFGQGTRLTVVEDLNKVFPPEVAVFEPSEAEISHTQKATLVCLATGFFPDHVELSWWVNGKEVHSGVSTDPQPLKEQPALNDSRYCLSSRLRVSATFWQNPRNHFRCQVQFYGLSENDEWTQDRAKPVTQIVSAEAWGRADCGFTSVSYQQGVLSATILYEILLGKATLYAVLVSALVLMAMVKRKDF
B2: TCR-D DS (TCR)
TCR alpha: B1 TCR alpha with T160C
TCR beta: B1 TCR beta with S170C
B3: TCR-E DS (TCR)
TCR alpha: B1 TCR alpha with E93V, T160C
TCR beta: NAGVTQTPKFQVLKTGQSMTLQCAQDMNHNSMYWYRQDPGMGLRLIYYSASEGTTDKGEVPNGYNVSRLNKREFSLRLESAAPSQTSVYFCASSRDRGPETQYFGPGTRLLVLEDLKNVFPPEVAVFEPSEAEISHTQKATLVCLATGFYPDHVELSWWVNGKEVHSGVCTDPQPLKEQPALNDSRYCLSSRLRVSATFWQNPRNHFRCQVQFYGLSENDEWTQDRAKPVTQIVSAEAWGRADCGFTSESYQQGVLSATILYEILLGKATLYAVLVSALVLMAMVKRKDSRG
B4: TCR-E (TCR)
TCR alpha: B1 TCR alpha with E93V
TCR beta: B3 TCR beta with C170S
B5: TCR-I (TCR)
TCR alpha: IDAKTTQPTSMDCAEGRAANLPCNHSTISGNEYVYWYRQIHSQGPQYIIHGLKNNETNEMASLIITEDRKSSTLILPHATLRDTAVYYCIVRFQSGGYQKVTFGTGTKLQVIPNIQNPDPAVYQLRDSKSSDKSVCLFTDFDSQTNVSQSKDSDVYITDKTVLDMRSMDFKSNSAVAWSNKSDFACANAFNNSIIPEDTFFPSPESSCDVKLVEKSFETDTNLNFQNLSVIGFRILLLKVAGFNLLMTLRLWSS
TCR beta: DAGVIQSPRHEVTEMGQEVTLRCKPISGHNSLFWYRQTMMRGLELLIYFNNNVPIDDSGMPEDRFSAKMPNASFSTLKIQPSEPRDSAVYFCASSIQAGGRYNEQFFGPGTRLTVLEDLKNVFPPEVAVFEPSEAEISHTQKATLVCLATGFYPDHVELSWWVNGKEVHSGVSTDPQPLKEQPALNDSRYCLSSRLRVSATFWQNPRNHFRCQVQFYGLSENDEWTQDRAKPVTQIVSAEAWGRADCGFTSESYQQGVLSATILYEILLGKATLYAVLVSALVLMAMVKRKDSRG
B6: TCR-I DS (TCR)
TCR alpha: B5 TCR alpha with T161C
TCR beta: B5 TCR beta with S173C
B7: TCR-F (TCR)
TCR alpha: EDQVTQSPEALRLQEGESSSLNCSYTVSGLRGLFWYRQDPGKGPEFLFTLYSAGEEKEKERLKATLTKKESFLHITAPKPEDSATYLCAVQATGYALNFGKGTSLLVTPHIQNPDPAVYQLRDSKSSDKSVCLFTDFDSQTNVSQSKDSDVYITDKTVLDMRSMDFKSNSAVAWSNKSDFACANAFNNSIIPEDTFFPSPESSCDVKLVEKSFETDTNLNFQNLSVIGFRILLLKVAGFNLLMTLRLWSS
TCR beta: GAGVSQSPSNKVTEKGKDVELRCDPISGHTALYWYRQSLGQGLEFLIYFQGNSAPDKSGLPSDRFSAERTGGSVSTLTIQRTQQEDSAVYLCASNLGGSRQPQHFGDGTRLSILEDLNKVFPPEVAVFEPSEAEISHTQKATLVCLATGFFPDHVELSWWVNGKEVHSGVSTDPQPLKEQPALNDSRYCLSSRLRVSATFWQNPRNHFRCQVQFYGLSENDEWTQDRAKPVTQIVSAEAWGRADCGFTSVSYQQGVLSATILYEILLGKATLYAVLVSALVLMAMVKRKDF
B8: TCR-F DS (TCR)
TCR alpha: B7 TCR alpha with T157C
TCR beta: B7 TCR beta with S171C
B9: TCR-B (TCR)
TCR alpha: EDKVVQSPLSLVVHEGDTVTLNCSYEVTNFRSLLWYKQEKKAPTFLFMLTSSGIEKKSGRLSSILDKKELFSILNITATQTGDSAVYLCAVNSGAGSYQLTFGKGTKLSVIPNIQNPDPAVYQLRDSKSSDKSVCLFTDFDSQTNVSQSKDSDVYITDKTVLDMRSMDFKSNSAVAWSNKSDFACANAFNNSIIPEDTFFPSPESSCDVKLVEKSFETDTNLNFQNLSVIGFRILLLKVAGFNLLMTLRLWSS
TCR beta: DAEITQSPRHKITETGRQVTLACHQTWNHNNMFWYRQDLGHGLRLIHYSYGVQDTNKGEVSDGYSVSRSNTEDLPLTLESAASSQTSVYFCASSSGGLYEQYFGPGTRLTVTEDLKNVFPPEVAVFEPSEAEISHTQKATLVCLATGFYPDHVELSWWVNGKEVHSGVSTDPQPLKEQPALNDSRYCLSSRLRVSATFWQNPRNHFRCQVQFYGLSENDEWTQDRAKPVTQIVSAEAWGRADCGFTSESYQQGVLSATILYEILLGKATLYAVLVSALVLMAMVKRKDSRG
B10: TCR-B DS (TCR)
TCR alpha: B9 TCR alpha with T160C
TCR beta: B9 TCR beta with S169C
B11: TCR-G (TCR)
TCR alpha: QKEVEQNSGPLSVPEGAIASLNCTYSDRGSQSFFWYRQYSGKSPELIMFIYSNGDKEDGRFTAQLNKASQYVSLLIRDSQPSDSATYLCAVIYSSASKIIFGSGTRLSIRPNIQNPDPAVYQLRDSKSSDKSVCLFTDFDSQTNVSQSKDSDVYITDKTVLDMRSMDFKSNSAVAWSNKSDFACANAFNNSIIPEDTFFPSPESSCDVKLVEKSFETDTNLNFQNLSVIGFRILLLKVAGFNLLMTLRLWSS
TCR beta: SQTIHQWPATLVQPVGSPLSLECTVEGTSNPNLYWYRQAAGRGLQLLFYSVGIGQISSEVPQNLSASRPQDRQFILSSKKLLLSDSGFYLCAWSVQRLGRGGETQYFGPGTRLLVLEDLKNVFPPEVAVFEPSEAEISHTQKATLVCLATGFYPDHVELSWWVNGKEVHSGVSTDPQPLKEQPALNDSRYCLSSRLRVSATFWQNPRNHFRCQVQFYGLSENDEWTQDRAKPVTQIVSAEAWGRADCGFTSESYQQGVLSATILYEILLGKATLYAVLVSALVLMAMVKRKDSRG
B12: TCR-G DS (TCR)
TCR alpha: B11 TCR alpha with T159C
TCR beta: B11 TCR beta with S173C
B13: TCR-C (TCR)
TCR alpha: RGNGKNQVEQSPQSLIILEGKNCTLQCNYTVSPFSNLRWYKQDTGRGPVSLTIMTFSENTKSNGRYTATLDADTKQSSLHITASQLSDSASYICVVGPSGGSNYKLTFGKGTLLTVNPNIQNPDPAVYQLRDSKSSDKSVCLFTDFDSQTNVSQSKDSDVYITDKTVLDMRSMDFKSNSAVAWSNKSDFACANAFNNSIIPEDTFFPSPESSCDVKLVEKSFETDTNLNFQNLSVIGFRILLLKVAGFNLLMTLRLWSS
TCR beta: DSGVTQTPKHLITATGQRVTLRCSPRSGDLSVYWYQQSLDQGLQFLIQYYNGEERAKGNILERFSAQQFPDLHSELNLSSLELGDSALYFCASSGQGFLGNTEAFFGQGTRLTVVEDLNKVFPPEVAVFEPSEAEISHTQKATLVCLATGFFPDHVELSWWVNGKEVHSGVSTDPQPLKEQPALNDSRYCLSSRLRVSATFWQNPRNHFRCQVQFYGLSENDEWTQDRAKPVTQIVSAEAWGRADCGFTSVSYQQGVLSATILYEILLGKATLYAVLVSALVLMAMVKRKDF
B14: TCR-C DS (TCR)
TCR alpha: B13 TCR alpha with T166C
TCR beta: B13 TCR beta with S172C
B15: TCR-H (TCR)
TCR alpha: EDQVTQSPEALRLQEGESSSLNCSYTVSGLRGLFWYRQDPGKGPEFLFTLYSAGEEKEKERLKATLTKKESFLHITAPKPEDSATYLCAVQLSDSNYKLTFGKGTLLTVNPNIQNPDPAVYQLRDSKSSDKSVCLFTDFDSQTNVSQSKDSDVYITDKTVLDMRSMDFKSNSAVAWSNKSDFACANAFNNSIIPEDTFFPSPESSCDVKLVEKSFETDTNLNFQNLSVIGFRILLLKVAGFNLLMTLRLWSS
TCR beta: NAGVTQTPKFQVLKTGQSMTLQCAQDMNHNSMYWYRQDPGMGLRLIYYSASEGTTDKGEVPNGYNVSRLNKREFSLRLESAAPSQTSVYFCASRGQVNEKLFFGSGTQLSVLEDLNKVFPPEVAVFEPSEAEISHTQKATLVCLATGFFPDHVELSWWVNGKEVHSGVSTDPQPLKEQPALNDSRYCLSSRLRVSATFWQNPRNHFRCQVQFYGLSENDEWTQDRAKPVTQIVSAEAWGRADCGFTSVSYQQGVLSATILYEILLGKATLYAVLVSALVLMAMVKRKDF
B16: TCR-H DS (TCR)
TCR alpha: B15 TCR alpha with T159C
TCR beta: B15 TCR beta with S169C

Where a chain is given by its changes, count along the chain named.

In this assay the target is T1, preproinsulin 73-90 peptide complexed …. Kind of assay: cell-based or functional assay.
B1: the “EC50 (nM) of CD69 upregulation, conventional CD4+ T cells + BLS-DRB1*04:01 cells, peptide titrated” value (“EC50 (nM) of CD69 upregulation” below) came to 4.42 nM.

For the molecule B2, the “EC50 (nM) of CD69 upregulation” value was determined as 2.18 nM.

Take B3: the “EC50 (nM) of CD69 upregulation” value was 3.47 nM.

Consider B4, for which the “EC50 (nM) of CD69 upregulation” value is 7.78 nM.

B5: the “EC50 (nM) of CD69 upregulation” value was 14.9 nM.

As to B6, the “EC50 (nM) of CD69 upregulation” value is 8.03 nM.

As to B7, the “EC50 (nM) of CD69 upregulation” value worked out at 1.5 nM.

Take B8: the “EC50 (nM) of CD69 upregulation” value came to 1.36 nM.

B9: the “EC50 (nM) of CD69 upregulation” value was determined as 5.68 nM.

Turning to B10, the “EC50 (nM) of CD69 upregulation” value is 3.78 nM.

B11: the “EC50 (nM) of CD69 upregulation” value was 11.2 nM.

With B12, the “EC50 (nM) of CD69 upregulation” value is 1.89 nM.

In the case of B13, the “EC50 (nM) of CD69 upregulation” value was 156 nM.

Turning to B14, the “EC50 (nM) of CD69 upregulation” value stood at 24.2 nM.

On to B15, for which the “EC50 (nM) of CD69 upregulation” value worked out at 0.93 nM.

For B16, the “EC50 (nM) of CD69 upregulation” value was 0.62 nM.
